Data reported in US20240200081A1, “NUCLEIC ACID MOLECULE CONJUGATE HAVING PROLONGED IN VIVO HALF-LIFE” (APTACURE THERAPEUTICS LIMITED, published 2024).

How the values were obtained:
sclerostin [1] = molecular target: sclerostin (UniProt Q9BQB4 Q9BQB4:24-213); assay: cell_activity; inhibition potency, TOP-Wnt luciferase reporter; conditions: tags: expressed from transfected sclerostin plasmid in MC3T3-E1 cells
Method: To study the inhibition potency of aptamers against sclerostin's antagonistic effect on Wnt signaling, a TOP-Wnt induced luciferase reporter assay was used in osteoblast MC3T3-E1 cells (van Bezooijen, Svensson et al. 2007, Shum, Chan et al. 2011).
MC3T3-E1 cells were seeded in 24-well plates and cells were transfected with corresponding reporter plasmid (100 ng), Wnt3a plasmid (800 ng) and sclerostin plasmid (800 ng) as necessary using FuGENE HD transfection reagent (Promega) in the following day. 10 hours after transfection, culture medium was changed to fresh medium and cells were treated with aptamers/antibody. 24 hours after treatment, each well of cells was lysed with 100 μl passive lysis buffer and 20 μl was taken for analysis. The Luciferase Assay Reagent II and Stop & Glo Reagent were prepared and added automatically by SpectraMax i3x Multi-Mode Detection Platform (Molecular Device) according to the manufacturer's protocol (Promega) and data was analyzed accordingly (Grentzmann, Ingram et al. 1998, McNabb, Reed et al. 2005).

sclerostin [2] = molecular target: sclerostin (Homo sapiens, UniProt Q9BQB4 SEQ:1-190); assay: ELONA; PBS, 1 mM MgCl2, RT; p158 prints 3' end as CT GCCC, APC001 as U G C C; conditions: tags: His6 (SELEX protein); recombinant human sclerostin
Sequence of sclerostin (Homo sapiens, UniProt Q9BQB4 SEQ:1-190) (Q9BQB4 24-213): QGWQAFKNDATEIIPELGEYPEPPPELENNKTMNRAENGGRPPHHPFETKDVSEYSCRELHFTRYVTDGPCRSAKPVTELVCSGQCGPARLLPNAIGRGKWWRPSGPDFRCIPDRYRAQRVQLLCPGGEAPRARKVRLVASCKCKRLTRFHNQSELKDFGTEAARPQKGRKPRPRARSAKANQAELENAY
Method: An Enzyme-linked OligoNucleotide Assay (ELONA) was performed to determine the binding affinity of the aptamer candidates to sclerostin (Drolet, Moon-McDermott et al. 1996). Similarly, an Enzyme-linked ImmunoSorbent Assay (ELISA) was performed to determine the binding affinity of anti-sclerostin antibody to human sclerostin (Engvall and Perlmann 1971). 160 ng purified recombinant human sclerostin was coated to 96-well microtiter plate in 100 μl PBS by incubating at 4° C. overnight. The plate was then blocked with blocking buffer (PBS, 0.1% Tween 20 and 1% BSA) for 1 h at room temperature and washed with SELEX B&W buffer (PBS, 1mM MgCl2, 0.1% Tween 20 and 0.1% BSA) for 4 times. The aptamer candidates were denatured at 95° C. for 10 min and rapidly cooled on ice for 10 min before use. Appropriate concentrations of biotinylated aptamers/antibody were added into each well, then added SELEX B&W buffer to 100 μl and incubated for 45 min at room temperature with continuous gentle shaking. After binding, the plate was washed with SELEX B&W buffer for 4 times to remove non-specific and very weak binding, followed by washing with PBST+0.1% BSA for 4 times. […] Absorbance at 450 nm was measured with microplate reader (Stoltenburg, Krafcikova et al. 2016). Data was analyzed with Origin software (OriginLab, Northampton, MA). […]

Sequence of sclerostin (UniProt Q9BQB4 Q9BQB4:24-213) (Q9BQB4 24-213, one chain of several): as the sequence (Q9BQB4 24-213) above

Work on CGGGGTGTGGGTTCGTCGTTAGCTTGATTTGGCAGCTGCC (ssDNA, 2'-OMe on first 4 (CGGG) and last 4 nucleotides; 3' idT) [modified aptscl 56] yielded an EC50 (sclerostin [1]) of 14 µg/mL and a Kd (sclerostin [2]) of 6.55 nM.
